# Data from publication doi:10.1101/580043 (bioRxiv, 2019).
# Where no end group is shown, it is not given here.
# T1: Recombinant full-length MBP-tagged PRG-1 (C. elegans, UniProt P90786 1-824)
# T1 sequence (looked up): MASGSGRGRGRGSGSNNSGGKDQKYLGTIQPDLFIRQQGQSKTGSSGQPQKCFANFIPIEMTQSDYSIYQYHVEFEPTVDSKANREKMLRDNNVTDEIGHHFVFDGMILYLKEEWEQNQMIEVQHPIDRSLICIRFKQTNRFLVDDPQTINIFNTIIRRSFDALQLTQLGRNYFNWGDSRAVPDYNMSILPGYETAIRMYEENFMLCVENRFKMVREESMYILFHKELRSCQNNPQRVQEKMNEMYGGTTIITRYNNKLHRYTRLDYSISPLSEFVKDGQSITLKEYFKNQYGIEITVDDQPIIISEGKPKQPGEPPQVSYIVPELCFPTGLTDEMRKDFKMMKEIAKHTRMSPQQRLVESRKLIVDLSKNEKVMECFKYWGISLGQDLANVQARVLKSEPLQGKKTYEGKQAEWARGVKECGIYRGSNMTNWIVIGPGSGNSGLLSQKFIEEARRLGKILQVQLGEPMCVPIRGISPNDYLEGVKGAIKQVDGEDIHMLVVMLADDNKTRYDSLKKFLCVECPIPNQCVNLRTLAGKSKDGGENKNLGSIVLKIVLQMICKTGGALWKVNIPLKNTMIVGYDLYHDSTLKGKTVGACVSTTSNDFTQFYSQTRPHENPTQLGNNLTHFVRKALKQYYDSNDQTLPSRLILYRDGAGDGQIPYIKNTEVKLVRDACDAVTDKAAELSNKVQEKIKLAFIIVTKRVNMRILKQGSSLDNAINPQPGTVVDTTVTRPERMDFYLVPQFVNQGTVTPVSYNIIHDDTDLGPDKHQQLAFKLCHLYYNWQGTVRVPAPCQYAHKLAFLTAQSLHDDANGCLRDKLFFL
# What was measured:
# [1] = biological target: T1, Recombinant full-length MBP-tagged PRG-1; test: MST
# [2] = biological target: MBP-tagged PRG-1 PIWI domain (C. elegans); test: MST
Kd [1] [nM],Kd [2] [nM],Binder
855,,"Recombinant full-length MBP-tagged DEPS-1 (natural protein, C. elegans, UniProt Q9N303 1-619, looked up, labelled with atto-488 NHS ester) MSERQSKYFDYQGIVISSTGQDNQDSETDLVYLIQAHGKAAPKNIMYGVSKCAFVPTNLERNFDNIEEAKNLERRSKIPLKFGEVILWNESDCDHDKRIILHIKREKPIYEASSSRNGLILKVGGVIQPTSTTSFWTPLCTVTMPETEATRAEPDVWLYAWIRFETTMKSGLDPFNMTATFESFDSCDPSDQARVCEAPWNAGSPDSKFGVWRPDPKPADSDDEIDIEPREGWHLPEDKWAEVIKMQLGLYVGERLLICKELSQFDFIIPLQKPFSRGTDKTLIYPAVGEYFHFSAIWSMQHNGFLIYELQPVPLLRQHVTSVNGNLLTRVVPASIRGLFVDKEGTLGLIDDPHHLLSFFEFHPAGYEFLKAMAEVRAVRTSENKSVRYRIVRTSGMSIFENWLRDTQFVVGPVKGIRINEDTVICAKHPNVYFKIPNNLKEGIPIGGGVQFVGKRQAGVDSEIMITECSPCPAFTCKNYSVSGDTRLFQVYLKPNCDHEQLAESDSMGFVDFRELETPCRGKFLAWVRESITVNDCRRAATIMEVCSTAICPPLIAMSANSSRATSARTTPAGSSIGSRSSIQSRASAATSVSSNRFVGPSSRRTPSGTPQSSTSSRV"
,1900,"NFDNIEEAKNLERRSKIPLKFGEVILWNESDCDHDKRIIL (also: labelled with atto-488 NHS ester, site not given here) [DEPS-1 PBS motif peptide]"
